The target of the experiment is purified recombinant human surfactant protein A (human, UniProt Q8IWL2, 125I radioiodination using chloramine T). In words: ligand blot of lysogen proteins (SDS-PAGE, PVDF, 125I-SP-A).

B1: recombinant porcine SP-A recognition protein (SPAR) encoded by the 1.8-kb porcine lung cDNA, expressed from lambda gt11 in E. coli Y1089 (receptor)
chain: MDMCYGMMGSLFRSGSRQTLFASQVMRYADLYAASFINLLYYPFSYLFRAAHVLMPHESTVEHTHVDINEMESPLATRNRTSVDFKDTDYKRHQLTRSISEIKPPNLFPLAPQEITHCHDEDDDEEEEEEEEECGGKPKLSALIKQVLAGLTGAKAVSLWVLVGGGGLHQRYILESFLKTLKYSNHREILVLVFCICTLCSWFRIVRESVSEERKGQAGLNCMQLAPLWFVTLFHHQYIIVYPETRRVVEGPRVKQRQWEEVIQKCYGTNWALTTKTHLFQCIT
Consider B1, for which the binding result is “binds”.

Source of the values: patent US6051224, “Compositions and methods for targeting cells and modulating pulmonary surfactant secretion” (Thomas Jefferson University, dated 2000).
